The source of these data is US20230174598A1 (UNIVERSITY OF FLORIDA RESEARCH FOUNDATION, published 2023).

B1: A113C arrestin-1 (bovine, His(6), C63A/C143A) labeled with monobromobimane (other)
chain: MHHHHHHKANKPAPNHVIFKKISRDKSVTIYLGKRDYIDHVERVEPVDGVVLVDPELVKGKRVYVSLTAAFRYGQEDIDVMGLSFRRDLYFSQVQVFPPVGASGATTRLQESLIKKLGCNTYPFLLTFPDYLPCSVMLQPAPQDVGKSAGVDFEIKAFATHSTDVEEDKIPKKSSVRLLIRKVQHAPRDMGPQPRAEASWQFFMSDKPLRLAVSLSKEIYYHGEPIPVTVAVTNSTEKTVKKIKVLVEQVTNVVLYSSDYYIKTVAAEEAQEKVPPNSSLTKTLTLVPLLANNRERRGIALDGKIKHEDTNLASSTIIKEGIDKTVMGILVSYQIKVKLTVSGLLGELTSSEVATEVPFRLMHPQPEDPDTAKESFQDENFVFEEFARQNLKDAGEYKEEKTDQEAAMDE
modifications: monobromobimane (mBBr) on Cys 113
notes: Cysteine-substitution mutant, made in Pichia pastoris
B2: E218C arrestin-1 (bovine, His(6), C63A/C143A) labeled with monobromobimane (other)
chain: MHHHHHHKANKPAPNHVIFKKISRDKSVTIYLGKRDYIDHVERVEPVDGVVLVDPELVKGKRVYVSLTAAFRYGQEDIDVMGLSFRRDLYFSQVQVFPPVGASGATTRLQESLIKKLGANTYPFLLTFPDYLPCSVMLQPAPQDVGKSAGVDFEIKAFATHSTDVEEDKIPKKSSVRLLIRKVQHAPRDMGPQPRAEASWQFFMSDKPLRLAVSLSKEIYYHGCPIPVTVAVTNSTEKTVKKIKVLVEQVTNVVLYSSDYYIKTVAAEEAQEKVPPNSSLTKTLTLVPLLANNRERRGIALDGKIKHEDTNLASSTIIKEGIDKTVMGILVSYQIKVKLTVSGLLGELTSSEVATEVPFRLMHPQPEDPDTAKESFQDENFVFEEFARQNLKDAGEYKEEKTDQEAAMDE
modifications: monobromobimane (mBBr) on Cys 218
notes: as for B1
B3: E302C arrestin-1 (bovine, His(6), C63A/C143A) labeled with monobromobimane (other)
chain: MHHHHHHKANKPAPNHVIFKKISRDKSVTIYLGKRDYIDHVERVEPVDGVVLVDPELVKGKRVYVSLTAAFRYGQEDIDVMGLSFRRDLYFSQVQVFPPVGASGATTRLQESLIKKLGANTYPFLLTFPDYLPCSVMLQPAPQDVGKSAGVDFEIKAFATHSTDVEEDKIPKKSSVRLLIRKVQHAPRDMGPQPRAEASWQFFMSDKPLRLAVSLSKEIYYHGEPIPVTVAVTNSTEKTVKKIKVLVEQVTNVVLYSSDYYIKTVAAEEAQEKVPPNSSLTKTLTLVPLLANNRERRGIALDGKIKHCDTNLASSTIIKEGIDKTVMGILVSYQIKVKLTVSGLLGELTSSEVATEVPFRLMHPQPEDPDTAKESFQDENFVFEEFARQNLKDAGEYKEEKTDQEAAMDE
modifications: monobromobimane (mBBr) on Cys 302
notes: as for B1
B4: K28C arrestin-1 (bovine, His(6), C63A/C143A) labeled with monobromobimane (other)
chain: MHHHHHHKANKPAPNHVIFKKISRDKSVTIYLGCRDYIDHVERVEPVDGVVLVDPELVKGKRVYVSLTAAFRYGQEDIDVMGLSFRRDLYFSQVQVFPPVGASGATTRLQESLIKKLGANTYPFLLTFPDYLPCSVMLQPAPQDVGKSAGVDFEIKAFATHSTDVEEDKIPKKSSVRLLIRKVQHAPRDMGPQPRAEASWQFFMSDKPLRLAVSLSKEIYYHGEPIPVTVAVTNSTEKTVKKIKVLVEQVTNVVLYSSDYYIKTVAAEEAQEKVPPNSSLTKTLTLVPLLANNRERRGIALDGKIKHEDTNLASSTIIKEGIDKTVMGILVSYQIKVKLTVSGLLGELTSSEVATEVPFRLMHPQPEDPDTAKESFQDENFVFEEFARQNLKDAGEYKEEKTDQEAAMDE
modifications: monobromobimane (mBBr) on Cys 28
notes: as for B1
B5: D183C arrestin-1 (bovine, His(6), C63A/C143A) labeled with monobromobimane (other)
chain: MHHHHHHKANKPAPNHVIFKKISRDKSVTIYLGKRDYIDHVERVEPVDGVVLVDPELVKGKRVYVSLTAAFRYGQEDIDVMGLSFRRDLYFSQVQVFPPVGASGATTRLQESLIKKLGANTYPFLLTFPDYLPCSVMLQPAPQDVGKSAGVDFEIKAFATHSTDVEEDKIPKKSSVRLLIRKVQHAPRCMGPQPRAEASWQFFMSDKPLRLAVSLSKEIYYHGEPIPVTVAVTNSTEKTVKKIKVLVEQVTNVVLYSSDYYIKTVAAEEAQEKVPPNSSLTKTLTLVPLLANNRERRGIALDGKIKHEDTNLASSTIIKEGIDKTVMGILVSYQIKVKLTVSGLLGELTSSEVATEVPFRLMHPQPEDPDTAKESFQDENFVFEEFARQNLKDAGEYKEEKTDQEAAMDE
modifications: monobromobimane (mBBr) on Cys 183
notes: as for B1
B6: E50C arrestin-1 (bovine, His(6), C63A/C143A) labeled with monobromobimane (other)
chain: MHHHHHHKANKPAPNHVIFKKISRDKSVTIYLGKRDYIDHVERVEPVDGVVLVDPCLVKGKRVYVSLTAAFRYGQEDIDVMGLSFRRDLYFSQVQVFPPVGASGATTRLQESLIKKLGANTYPFLLTFPDYLPCSVMLQPAPQDVGKSAGVDFEIKAFATHSTDVEEDKIPKKSSVRLLIRKVQHAPRDMGPQPRAEASWQFFMSDKPLRLAVSLSKEIYYHGEPIPVTVAVTNSTEKTVKKIKVLVEQVTNVVLYSSDYYIKTVAAEEAQEKVPPNSSLTKTLTLVPLLANNRERRGIALDGKIKHEDTNLASSTIIKEGIDKTVMGILVSYQIKVKLTVSGLLGELTSSEVATEVPFRLMHPQPEDPDTAKESFQDENFVFEEFARQNLKDAGEYKEEKTDQEAAMDE
modifications: monobromobimane (mBBr) on Cys 50
notes: as for B1
B7: D362C arrestin-1 (bovine, His(6), C63A/C143A) labeled with monobromobimane (other)
chain: MHHHHHHKANKPAPNHVIFKKISRDKSVTIYLGKRDYIDHVERVEPVDGVVLVDPELVKGKRVYVSLTAAFRYGQEDIDVMGLSFRRDLYFSQVQVFPPVGASGATTRLQESLIKKLGANTYPFLLTFPDYLPCSVMLQPAPQDVGKSAGVDFEIKAFATHSTDVEEDKIPKKSSVRLLIRKVQHAPRDMGPQPRAEASWQFFMSDKPLRLAVSLSKEIYYHGEPIPVTVAVTNSTEKTVKKIKVLVEQVTNVVLYSSDYYIKTVAAEEAQEKVPPNSSLTKTLTLVPLLANNRERRGIALDGKIKHEDTNLASSTIIKEGIDKTVMGILVSYQIKVKLTVSGLLGELTSSEVATEVPFRLMHPQPECPDTAKESFQDENFVFEEFARQNLKDAGEYKEEKTDQEAAMDE
modifications: monobromobimane (mBBr) on Cys 362
notes: as for B1

Sequence of bovine enolase-1 (Q9XSJ4 whole entry): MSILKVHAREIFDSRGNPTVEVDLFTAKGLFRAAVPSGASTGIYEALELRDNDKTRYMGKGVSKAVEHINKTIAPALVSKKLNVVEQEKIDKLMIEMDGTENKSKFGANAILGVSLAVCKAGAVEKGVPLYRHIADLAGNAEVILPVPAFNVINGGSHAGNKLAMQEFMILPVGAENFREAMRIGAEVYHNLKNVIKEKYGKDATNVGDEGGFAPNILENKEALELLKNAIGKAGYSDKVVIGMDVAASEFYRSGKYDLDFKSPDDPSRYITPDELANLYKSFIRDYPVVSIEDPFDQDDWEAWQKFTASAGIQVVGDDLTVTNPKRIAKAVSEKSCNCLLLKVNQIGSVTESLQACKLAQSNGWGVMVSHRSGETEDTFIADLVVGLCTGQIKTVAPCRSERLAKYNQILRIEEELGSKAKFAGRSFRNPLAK

The target of the assay is bovine enolase-1 (bovine, UniProt Q9XSJ4 1-434, AlexaFluor-546 maleimide on reactive cysteines (pulldown assay only; unlabeled in the quench and activity assays)). The assay is described as follows: KI quench protection of mBBr-labeled arrestin-1; 0.25 µM arrestin-1, 5 µM (20-fold) enolase-1. As for the experimental part:
C. Quenching assay. Cysteine mutants of arrestin-1 were labeled with monobromobimane (mBBr, ThermoFisher), reacting the arrestin-1 protein with 100-fold molar excess of the fluorescent label for two hours at room temperature. The unreacted label was removed by dialyzing against three sequential changes of 500-volumes of LAP200 buffer. […] Fluorescence quenching of the mBBr fluorophore was performed using 0.25 μM mBBr-labeled arrestin-1 with 100 mM potassium iodide in the presence or absence of 5 μM bovine enolase-1 that had been heterologously expressed and purified as previously described for arrestin-1, monitoring fluorescence emission at 470 nm. To determine the degree to which enolase-1 shielded a residue from quenching by potassium iodide, a protection factor was calculated as follows: […]
C. Mapping interaction of arrestin-1 with enolase-1. […] The fluorescence emission of the mBBr-labeled arrestin-1 with and without potassium iodide was measured to determine the range of quenching by KI. The fluorescence emission quench by KI with and without enolase-1 was then measured. A quench protection factor was calculated as described in the experimental procedures (Table 2). […] When mapped onto the surface of the arrestin-1 structure, these residues largely mapped to a single surface along the “bottom” of the arrestin protein (FIG. 2B).
For “Y125C arrestin-1 (bovine, His(6), C63A/C143A) labeled with monobromobimane (from UniProt P08168 2-404)”, the F(A+E+K) (fluorescence with enolase-1 and KI) was determined as 14000; the Pf (quench protection factor) was found to be 0.012.

As to “Y25C arrestin-1 (bovine, His(6), C63A/C143A) labeled with monobromobimane (from UniProt P08168 2-404)”, the F(A+E+K) (fluorescence with enolase-1 and KI) amounted to 600; the Pf (quench protection factor) is -0.011.

In the case of “R18C arrestin-1 (bovine, His(6), C63A/C143A) labeled with monobromobimane (from UniProt P08168 2-404)”, the F(A+E+K) (fluorescence with enolase-1 and KI) turned out to be 963; the Pf (quench protection factor) is -0.005.

In the case of “W194C arrestin-1 (bovine, His(6), C63A/C143A) labeled with monobromobimane (from UniProt P08168 2-404)”, the F(A+E+K) (fluorescence with enolase-1 and KI) was 14000; the Pf (quench protection factor) stood at 0.012.

“D317C arrestin-1 (bovine, His(6), C63A/C143A) labeled with monobromobimane (from UniProt P08168 2-404)”: the F(A+E+K) (fluorescence with enolase-1 and KI) turned out to be 11500; the Pf (quench protection factor) stood at 0.002.

In turn, “E393C arrestin-1 (bovine, His(6), C63A/C143A) labeled with monobromobimane (from UniProt P08168 2-404)” returned a F(A+E+K) (fluorescence with enolase-1 and KI) of 953; a Pf (quench protection factor) of 0.134.

“V139C arrestin-1 (bovine, His(6), C63A/C143A) labeled with monobromobimane (from UniProt P08168 2-404)” gave a F(A+E+K) (fluorescence with enolase-1 and KI) of 778; a Pf (quench protection factor) of -0.001.

“I72C arrestin-1 (bovine, His(6), C63A/C143A) labeled with monobromobimane (from UniProt P08168 2-404)”: the F(A+E+K) (fluorescence with enolase-1 and KI) was 630; the Pf (quench protection factor) amounted to 0.002.

In the case of “S251C arrestin-1 (bovine, His(6), C63A/C143A) labeled with monobromobimane (from UniProt P08168 2-404)”, the F(A+E+K) (fluorescence with enolase-1 and KI) worked out at 730; the Pf (quench protection factor) was determined as 0.011.

“S86C arrestin-1 (bovine, His(6), C63A/C143A) labeled with monobromobimane (from UniProt P08168 2-404)” yielded a F(A+E+K) (fluorescence with enolase-1 and KI) of 6160; a Pf (quench protection factor) of 0.073.

As for “S231C arrestin-1 (bovine, His(6), C63A/C143A) labeled with monobromobimane (from UniProt P08168 2-404)”, the F(A+E+K) (fluorescence with enolase-1 and KI) was found to be 695; the Pf (quench protection factor) is 0.002.

With “S199C arrestin-1 (bovine, His(6), C63A/C143A) labeled with monobromobimane (from UniProt P08168 2-404)”, the F(A+E+K) (fluorescence with enolase-1 and KI) amounted to 636; the Pf (quench protection factor) was -0.001.

For the molecule B1, the “F(A+E+K) (fluorescence with enolase-1 and KI)” value stood at 3460; the “Pf (quench protection factor)” value worked out at 0.109.

With B2, the “F(A+E+K) (fluorescence with enolase-1 and KI)” value is 9500; the “Pf (quench protection factor)” value was 1.08.

B3: the “F(A+E+K) (fluorescence with enolase-1 and KI)” value is 3680; the “Pf (quench protection factor)” value amounted to 0.772.

As to B4, the “F(A+E+K) (fluorescence with enolase-1 and KI)” value amounted to 17200; the “Pf (quench protection factor)” value is 0.732.

Regarding B5, the “F(A+E+K) (fluorescence with enolase-1 and KI)” value turned out to be 19200; the “Pf (quench protection factor)” value came to 0.787.

Consider B6, for which the “F(A+E+K) (fluorescence with enolase-1 and KI)” value turned out to be 8140; the “Pf (quench protection factor)” value turned out to be 0.297.

Consider B7, for which the “F(A+E+K) (fluorescence with enolase-1 and KI)” value worked out at 5490; the “Pf (quench protection factor)” value came to 1.2.
